According to the supplement of paper PMC9876800:

Test system: peptide library, one residue held at a place counted from the S/T acceptor
Assay: relative phosphorylation of the sub-library (ratio to the mean residue at this position); higher = residue favoured
Settings: human
Summary of the method: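 Purified recombinant kinases were reacted in 384-well plates with biotinylated degenerate peptide sub-libraries, each having one residue fixed at one position around a central Ser/Thr. The reaction mix contained 50 μM peptide plus 50 μM ATP spiked with γ-32P-ATP and ran for 90 min under kinase-specific conditions. Relative sub-library phosphorylation, taken from densitometry of phosphorimaged streptavidin membrane spots, is a ratio to the mean residue at that position.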

Sequence of ULK1, construct: aa1-649 (O75385 1-649, looked up): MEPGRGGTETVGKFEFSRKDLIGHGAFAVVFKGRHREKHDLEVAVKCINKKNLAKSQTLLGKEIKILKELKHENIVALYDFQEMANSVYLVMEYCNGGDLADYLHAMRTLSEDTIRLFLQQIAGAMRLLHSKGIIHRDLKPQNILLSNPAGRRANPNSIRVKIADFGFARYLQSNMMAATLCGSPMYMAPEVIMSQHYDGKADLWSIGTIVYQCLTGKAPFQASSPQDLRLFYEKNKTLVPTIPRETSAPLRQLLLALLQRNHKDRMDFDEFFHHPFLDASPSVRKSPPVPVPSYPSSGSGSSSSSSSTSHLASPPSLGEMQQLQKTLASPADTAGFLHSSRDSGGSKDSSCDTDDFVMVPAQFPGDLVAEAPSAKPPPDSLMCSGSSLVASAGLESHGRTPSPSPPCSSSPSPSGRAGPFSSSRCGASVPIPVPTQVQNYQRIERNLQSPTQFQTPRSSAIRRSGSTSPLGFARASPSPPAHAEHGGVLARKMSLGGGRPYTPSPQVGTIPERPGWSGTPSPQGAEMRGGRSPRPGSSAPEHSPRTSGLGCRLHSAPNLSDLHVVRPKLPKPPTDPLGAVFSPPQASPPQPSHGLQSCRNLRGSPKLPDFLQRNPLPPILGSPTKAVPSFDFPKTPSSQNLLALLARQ
Sequence of CDK18, construct: Full length (Q07002 whole entry, looked up): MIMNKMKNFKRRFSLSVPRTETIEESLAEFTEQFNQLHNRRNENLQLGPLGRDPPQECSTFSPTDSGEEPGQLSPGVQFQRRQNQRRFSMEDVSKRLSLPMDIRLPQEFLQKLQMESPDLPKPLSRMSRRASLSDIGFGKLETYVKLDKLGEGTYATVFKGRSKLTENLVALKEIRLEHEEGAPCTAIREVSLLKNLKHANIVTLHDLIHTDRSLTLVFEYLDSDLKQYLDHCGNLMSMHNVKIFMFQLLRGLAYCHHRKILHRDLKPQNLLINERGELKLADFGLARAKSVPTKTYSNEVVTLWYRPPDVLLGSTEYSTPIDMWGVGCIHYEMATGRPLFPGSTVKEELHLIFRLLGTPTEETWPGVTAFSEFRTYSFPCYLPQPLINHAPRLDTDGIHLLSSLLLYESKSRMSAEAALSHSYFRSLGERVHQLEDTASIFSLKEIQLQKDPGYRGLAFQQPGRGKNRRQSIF
Sequence of MAPK1, construct: Full length (P28482 whole entry, looked up): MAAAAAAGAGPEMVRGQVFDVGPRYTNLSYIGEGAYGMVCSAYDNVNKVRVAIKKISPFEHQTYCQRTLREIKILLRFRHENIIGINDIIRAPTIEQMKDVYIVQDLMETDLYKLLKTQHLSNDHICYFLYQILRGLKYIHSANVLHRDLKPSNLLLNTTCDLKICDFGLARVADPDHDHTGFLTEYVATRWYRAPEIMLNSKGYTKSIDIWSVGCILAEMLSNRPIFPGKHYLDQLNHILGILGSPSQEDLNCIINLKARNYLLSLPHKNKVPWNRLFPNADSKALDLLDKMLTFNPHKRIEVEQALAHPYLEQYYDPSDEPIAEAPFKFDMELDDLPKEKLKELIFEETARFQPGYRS

ULK1, construct: aa1-649 (from UniProt O75385)
relative phosphorylation
Settings | at +1 | at +2 | at +3 | at +4 | at -1 | at -2 | at -3 | at -4 | at -5
A fixed | 0.56 | 0.645 | 0.867 | 0.899 | 1.17 | 1.22 | 0.964 | 1.16 | 1.15
D fixed | 0.265 | 0.292 | 0.853 | 0.841 | 1.13 | 1.22 | 0.659 | 1.21 | 1.61
E fixed | 0.424 | 0.307 | 0.834 | 0.944 | 1.19 | 1.19 | 0.572 | 0.905 | 1.02
F fixed | 1.74 | 1.12 | 0.842 | 0.803 | 0.477 | 1.08 | 1.11 | 0.716 | 0.797
G fixed | 0.359 | 0.409 | 1.04 | 1.11 | 0.79 | 0.916 | 0.884 | 1.3 | 1.18
H fixed | 0.854 | 1.87 | 1.13 | 1.19 | 0.857 | 1.14 | 0.682 | 1.01 | 1.15
I fixed | 1.53 | 1.26 | 0.869 | 0.738 | 0.543 | 0.753 | 0.674 | 0.678 | 0.572
K fixed | 0.615 | 0.849 | 1.48 | 1.32 | 1.83 | 0.608 | 0.404 | 0.832 | 1.09
L fixed | 1.13 | 0.94 | 0.901 | 0.836 | 0.723 | 0.799 | 1.56 | 0.821 | 0.733
M fixed | 2.01 | 1.23 | 0.906 | 0.848 | 1.19 | 1.09 | 4.03 | 1.07 | 0.786
N fixed | 0.563 | 0.816 | 0.891 | 1.01 | 1.09 | 0.947 | 1.1 | 1.2 | 1.42
P fixed | 0.234 | 0.211 | 0.927 | 1.32 | 0.397 | 0.439 | 0.698 | 1.27 | 0.811
Q fixed | 1.26 | 0.753 | 1.24 | 1.17 | 1.52 | 0.991 | 0.837 | 1.02 | 0.957
R fixed | 0.725 | 0.989 | 1.2 | 0.993 | 1.57 | 0.545 | 0.447 | 0.844 | 1.1
V fixed | 1.47 | 1.02 | 0.866 | 0.77 | 0.903 | 0.913 | 0.574 | 0.659 | 0.661
W fixed | 1.39 | 1.65 | 1.1 | 1.2 | 0.82 | 1.93 | 1.2 | 1.6 | 1.18
Y fixed | 1.87 | 2.64 | 1.04 | 1 | 0.794 | 1.22 | 0.599 | 0.716 | 0.786
pThr fixed | 0.885 | 0.413 | 0.718 | 1.13 | 0.568 | 0.67 | 0.704 | 0.846 | 0.762
pTyr fixed | 1.14 | 0.618 | 0.648 | 0.615 | 0.99 | 1.12 | 0.642 | 0.672 | 0.664

MAPK1, construct: Full length (from UniProt P28482)
relative phosphorylation
Settings | at +1 | at +2 | at +3 | at +4 | at -1 | at -2 | at -3 | at -4 | at -5
A fixed | 0.973 | 0.668 | 0.858 | 0.681 | 0.711 | 0.878 | 1 | 0.906 | 0.914
D fixed | 0.121 | 0.537 | 0.684 | 0.75 | 0.577 | 0.465 | 1.09 | 1.21 | 1.23
E fixed | 0.0909 | 0.28 | 0.721 | 0.679 | 0.447 | 0.486 | 1.19 | 1.28 | 0.955
F fixed | 0.427 | 1.43 | 1.46 | 1.18 | 0.906 | 0.58 | 0.839 | 0.886 | 1.02
G fixed | 0.756 | 1.02 | 0.866 | 0.753 | 0.711 | 0.513 | 1.06 | 1.02 | 1.02
H fixed | 0.474 | 1.66 | 1.37 | 1.17 | 1.23 | 0.622 | 1.02 | 1.06 | 1.21
I fixed | 0.235 | 0.91 | 1.05 | 1.15 | 0.727 | 1.49 | 0.814 | 1.08 | 0.752
K fixed | 0.472 | 1.6 | 0.821 | 1.55 | 1.59 | 0.547 | 0.723 | 1.01 | 1.07
L fixed | 0.426 | 1.26 | 1.15 | 1 | 1.43 | 1.87 | 0.915 | 0.817 | 0.912
M fixed | 0.4 | 1.16 | 1.13 | 1.11 | 1.35 | 1.35 | 1.07 | 0.993 | 0.812
N fixed | 0.216 | 1.06 | 0.676 | 0.933 | 0.86 | 0.776 | 1.11 | 1.02 | 1.07
P fixed | 10.5 | 0.399 | 1.05 | 0.748 | 0.916 | 3.03 | 1.48 | 0.895 | 0.946
Q fixed | 0.289 | 0.785 | 0.682 | 0.96 | 1.25 | 1.1 | 1.15 | 1.09 | 1.03
R fixed | 0.442 | 1.67 | 0.931 | 1.07 | 1.76 | 0.901 | 1.11 | 1.11 | 1.18
V fixed | 0.256 | 0.8 | 0.799 | 0.853 | 0.669 | 1.34 | 0.79 | 0.643 | 0.689
W fixed | 0.453 | 0.885 | 1.41 | 1.3 | 0.828 | 0.512 | 0.807 | 1.04 | 1.05
Y fixed | 0.439 | 0.869 | 1.35 | 1.1 | 1.04 | 0.549 | 0.838 | 0.945 | 1.15
pThr fixed | 0.432 | 0.683 | 0.642 | 0.847 | 0.381 | 1.05 | 1.2 | 1.18 | 1.16
pTyr fixed | 0.517 | 0.404 | 1.01 | 0.861 | 0.351 | 0.691 | 1.31 | 0.918 | 1.18

CDK18, construct: Full length (from UniProt Q07002)
relative phosphorylation
Settings | at +1 | at +2 | at +3 | at +4 | at -1 | at -2 | at -3 | at -4 | at -5
A fixed | 0.339 | 0.788 | 1.01 | 1.29 | 1.11 | 1.37 | 1.15 | 1.33 | 1.04
D fixed | 0.148 | 0.632 | 0.364 | 0.521 | 0.489 | 0.384 | 0.605 | 0.835 | 0.919
E fixed | 0.127 | 0.377 | 0.292 | 0.355 | 0.348 | 0.463 | 0.719 | 0.823 | 0.831
F fixed | 0.196 | 0.581 | 1.03 | 0.759 | 0.57 | 0.705 | 0.539 | 0.696 | 0.844
G fixed | 1.13 | 0.837 | 0.922 | 2.23 | 2.13 | 1.11 | 2.12 | 1.24 | 1.15
H fixed | 0.274 | 1.23 | 0.695 | 1.21 | 0.987 | 0.807 | 1.05 | 1.02 | 1.37
I fixed | 0.178 | 0.705 | 1.03 | 0.634 | 0.247 | 0.72 | 0.569 | 0.788 | 0.804
K fixed | 0.316 | 2.28 | 0.862 | 1.33 | 1.67 | 0.671 | 0.937 | 1.48 | 1.53
L fixed | 0.199 | 0.877 | 2.5 | 0.581 | 0.561 | 0.963 | 0.589 | 1 | 1.16
M fixed | 0.196 | 0.901 | 1.46 | 0.699 | 0.934 | 0.887 | 0.648 | 0.718 | 0.799
N fixed | 0.239 | 1.11 | 0.806 | 1.16 | 1.02 | 0.777 | 1.06 | 1.27 | 1.12
P fixed | 12.4 | 0.972 | 2.05 | 0.831 | 1.71 | 3.93 | 2.29 | 1.43 | 1.12
Q fixed | 0.279 | 1.06 | 1.03 | 0.969 | 1.13 | 0.999 | 1.03 | 1.01 | 0.77
R fixed | 0.281 | 2.23 | 0.719 | 1.79 | 1.9 | 0.94 | 1.33 | 0.941 | 0.827
V fixed | 0.263 | 0.744 | 1.04 | 0.703 | 0.379 | 0.852 | 0.768 | 0.596 | 0.677
W fixed | 0.236 | 0.782 | 0.703 | 1.09 | 0.911 | 0.886 | 0.852 | 1.05 | 1.12
Y fixed | 0.184 | 0.887 | 0.498 | 0.845 | 0.914 | 0.543 | 0.748 | 0.765 | 0.911
pThr fixed | 0.415 | 0.681 | 0.949 | 0.372 | 0.316 | 0.823 | 0.982 | 0.951 | 0.78
pTyr fixed | 0.508 | 0.48 | 0.815 | 0.591 | 0.341 | 0.572 | 0.943 | 0.82 | 1.07

MAP3K5, construct: aa659-951 (from UniProt Q99683)
relative phosphorylation
Settings | at +1 | at +2 | at +3 | at +4 | at -1 | at -2 | at -3 | at -4 | at -5
A fixed | 0.385 | 0.72 | 0.897 | 0.901 | 0.825 | 1.66 | 1.44 | 1.09 | 1.01
D fixed | 0.255 | 0.881 | 0.707 | 0.815 | 0.699 | 0.504 | 0.689 | 0.908 | 0.899
E fixed | 0.344 | 0.473 | 0.652 | 0.812 | 0.685 | 0.471 | 0.738 | 0.906 | 0.815
F fixed | 2 | 1.32 | 1.22 | 0.964 | 1.08 | 0.77 | 0.826 | 1.04 | 1.17
G fixed | 0.324 | 0.521 | 0.951 | 0.926 | 1.58 | 1.12 | 0.979 | 1.08 | 1.28
H fixed | 1.1 | 1.06 | 1.04 | 1.12 | 1.06 | 0.985 | 1.24 | 1.02 | 1.19
I fixed | 2.04 | 0.648 | 1.01 | 0.717 | 0.507 | 1.12 | 0.905 | 0.897 | 0.75
K fixed | 0.375 | 1.08 | 1.04 | 1.88 | 1.13 | 0.61 | 1.02 | 0.913 | 1.13
L fixed | 1.33 | 0.806 | 1.03 | 0.943 | 0.993 | 1.12 | 1.01 | 0.827 | 0.747
M fixed | 0.894 | 0.812 | 1.06 | 0.877 | 1.06 | 1.17 | 0.894 | 1.04 | 0.88
N fixed | 0.382 | 0.615 | 0.793 | 0.743 | 1.04 | 1.36 | 0.989 | 0.807 | 0.792
P fixed | 0.352 | 0.543 | 1.03 | 1.02 | 1.07 | 1.22 | 1.36 | 1.22 | 1.41
Q fixed | 0.498 | 0.64 | 0.806 | 0.89 | 0.775 | 0.987 | 1 | 1.01 | 0.919
R fixed | 0.401 | 1.34 | 1.31 | 1.5 | 1.6 | 0.941 | 1.04 | 0.965 | 1.08
V fixed | 1.78 | 0.645 | 1.01 | 0.723 | 0.54 | 1.09 | 0.835 | 1.12 | 0.836
W fixed | 1.97 | 1.32 | 1.14 | 1.33 | 0.981 | 0.777 | 1.12 | 1.08 | 0.996
Y fixed | 2.56 | 3.57 | 1.29 | 0.846 | 1.37 | 1.09 | 0.904 | 1.07 | 1.09
pThr fixed | 0.556 | 0.528 | 0.673 | 0.597 | 0.672 | 0.847 | 0.914 | 0.985 | 1
pTyr fixed | 0.623 | 0.518 | 0.863 | 0.704 | 1.47 | 0.793 | 0.884 | 1.04 | 1.24
